Results from patent US20160222086.

Legend:
[1] = system: T1, thrombin-activated 40 K-PEG-[O]-rFVIII
T1 sequence: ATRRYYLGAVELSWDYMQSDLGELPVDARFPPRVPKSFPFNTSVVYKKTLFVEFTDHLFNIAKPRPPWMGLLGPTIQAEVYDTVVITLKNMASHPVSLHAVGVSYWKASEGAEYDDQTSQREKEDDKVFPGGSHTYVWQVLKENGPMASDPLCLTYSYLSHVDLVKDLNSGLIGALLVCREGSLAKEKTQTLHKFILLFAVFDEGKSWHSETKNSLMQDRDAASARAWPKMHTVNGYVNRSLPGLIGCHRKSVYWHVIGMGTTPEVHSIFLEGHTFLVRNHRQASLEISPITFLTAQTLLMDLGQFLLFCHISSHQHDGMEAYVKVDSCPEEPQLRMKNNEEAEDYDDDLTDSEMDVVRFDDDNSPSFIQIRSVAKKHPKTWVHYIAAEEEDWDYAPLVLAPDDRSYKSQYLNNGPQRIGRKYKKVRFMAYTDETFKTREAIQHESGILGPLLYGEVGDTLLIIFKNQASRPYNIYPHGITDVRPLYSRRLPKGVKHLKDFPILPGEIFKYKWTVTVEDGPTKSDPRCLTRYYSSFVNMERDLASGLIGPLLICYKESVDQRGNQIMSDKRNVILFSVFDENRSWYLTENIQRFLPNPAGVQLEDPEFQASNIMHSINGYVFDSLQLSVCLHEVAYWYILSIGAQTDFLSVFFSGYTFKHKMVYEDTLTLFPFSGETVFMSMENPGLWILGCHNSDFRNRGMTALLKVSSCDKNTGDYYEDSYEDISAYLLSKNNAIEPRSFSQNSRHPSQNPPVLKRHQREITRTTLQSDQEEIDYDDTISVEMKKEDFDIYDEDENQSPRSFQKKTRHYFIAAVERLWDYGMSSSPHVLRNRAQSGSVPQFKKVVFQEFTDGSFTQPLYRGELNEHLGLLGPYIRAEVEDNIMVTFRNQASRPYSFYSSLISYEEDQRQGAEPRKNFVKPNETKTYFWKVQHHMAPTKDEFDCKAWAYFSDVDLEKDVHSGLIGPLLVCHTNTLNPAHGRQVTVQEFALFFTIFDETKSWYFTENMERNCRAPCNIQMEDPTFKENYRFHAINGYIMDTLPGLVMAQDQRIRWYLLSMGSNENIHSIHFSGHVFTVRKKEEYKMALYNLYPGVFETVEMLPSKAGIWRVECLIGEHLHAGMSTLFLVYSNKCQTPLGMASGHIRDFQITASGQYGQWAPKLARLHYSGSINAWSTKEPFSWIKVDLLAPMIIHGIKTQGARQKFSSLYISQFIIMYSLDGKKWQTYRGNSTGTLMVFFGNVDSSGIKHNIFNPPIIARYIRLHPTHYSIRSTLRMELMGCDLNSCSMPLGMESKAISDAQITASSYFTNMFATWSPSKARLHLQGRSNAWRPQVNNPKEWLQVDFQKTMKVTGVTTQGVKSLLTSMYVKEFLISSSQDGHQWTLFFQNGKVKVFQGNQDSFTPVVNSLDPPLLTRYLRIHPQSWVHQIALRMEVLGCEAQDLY

[2] = system: T2, thrombin-activated 80 K-PEG-[O]-rFVIII
T2 sequence: T1 sequence

[3] = system: T3, thrombin-activated rFVIII (rFVIIIa), made from the recombinant B-domain truncated Factor VIII N8
T3 sequence: T1 sequence

FIXa
K1/2FIXa [1]: 0.42 nM
apparent Kd of rFVIIIa-FIXa interaction (K1/2FIXa) [1]: O-linked glycoPEGylation did not affect the apparent Kd of rFVIIIa-FIXa interaction (K1/2FIXa)
K1/2FIXa [2]: 1.11 nM
apparent Kd of rFVIIIa-FIXa interaction (K1/2FIXa) [2]: O-linked glycoPEGylation did not affect the apparent Kd of rFVIIIa-FIXa interaction (K1/2FIXa)
K1/2FIXa [3]: 0.88 nM
